Consider 24 molecules from paper PMC9891502 (PLOS Pathogens, 2023).

Numbering of substitutions follows the chain as printed. Numbers in names are those of the source.

T1: gB AD-2S1 peptide (Human cytomegalovirus (HHV-5), gB …)
T1 chain: HRANETIYNTTLKYG

B1: 3–25 UCA with VH A33N (antibody, V domains shown)
VH: QVQLVESGGGVVQPGRSLRLSCAASGFTFSSYNMHWVRQAPGKGLEWVAVISYDGSNKYYADSVKGRFTISRDNSKNTLYLQMNSLRAEDTAVYYCAREGYCSGGSCYSGQPDYWGQGTLVTVSS
VL: not shown
B2: 3–25 UCA with VH A33G (antibody, V domains shown)
VH: B1 VH with N33G
VL: not shown
B3: TRL345 unmutated common ancestor (UCA) mAb (antibody, V domains shown)
VH: QVQLVESGGGVVQPGRSLRLSCAASGFTFSSYAMHWVRQAPGKGLEWVAVISYDGSNKYYADSVKGRFTISRDNSKNTLYLQMNSLRAEDTAVYYCARDGRSVGGFSGILDPWGQGTLVTVSS
VL: not shown
notes: also called TRL345 UCA; TRL345.UCA
B4: TRL345 UCA with VH Y52aN (antibody, V domains shown)
VH: B3 VH with Y53N
VL: not shown
B5: TRL345 UCA with VH A33N (antibody, V domains shown)
VH: B3 VH with A33N
VL: not shown
B6: I8 with VH A33N reverted to germline (antibody, V domains shown)
VH: B3 VH with Y53N
VL: not shown
B7: TRL345 UCA with VL N53D (antibody, V domains shown)
VH: B3 VH
VL: not shown
B8: I8 with VH Y52aN reverted to germline (antibody, V domains shown)
VH: B3 VH with A33N
VL: not shown
B9: MAB343 (antibody, V domains shown)
VH: QVQLQESGGGVVQPGRSLRLSCAASGFTFNTYNMHWVRQAPGKGLEWVAVISNDGTYKYSADSVKGRFSISRGNSKNTLYLQMNSLRPDDTAVYYCARDGRSVGGFSGILDPWGQGTLATVSS
VL: EIVMTQSPATLSLSPGDRATLSCRASQSVGSYLAWYQQKPGQAPRLLIYDASDRATGIPARFSGSGSGTDFTLTISSLEPEDFAVYYCQQRSNWPPLTFGGGTKVEIK
B10: I4 (antibody, V domains shown)
VH: B9 VH with Q5V, G73D, A119V
VL: B9 VL with M4L
notes: also called intermediate 4
B11: MAB309 (I2) (antibody, V domains shown)
VH: QVQLVQSGGGVVQPGTSLRLSCAASGFMFNTYNMHWVRQAPGKGLEWVAVISNDGTYKHFADSLKGRFSISRDDSKNTLYLHMNSLRPDDTAIYYCARDGRSVGGFSGILDPWGQGTLVTVSS
VL: B9 VL with M4L, S28T, S31R, P59S, N93S
B12: MAB338 (antibody, V domains shown)
VH: QVQLVESGGGVVQPGRSLRLSCSGSGFTFSDYNLHWVRQAPGKGLEWVAVISIDGTNKHHADSVKGRFTISRDNSKNTVNLEMSRLKAEDTAVYYCVRDGRSIGGYSGIFDPWGQGTLVTVSS
VL: B9 VL with M4L, D17E, G30D, S31R, D53Q, T74A, F83V, V105I
B13: MAB316 (antibody, V domains shown)
VH: QVQLVQSGGGVVQPGRSLTLSCAASGFTFSGFSLHWVRQAPGKGLQWVAVISFDGNHKHFADSLKGRFTISRDNSKNTLYLQINDLRGEDTAVYYCARDGRAVDGFSGILDFWGQGTLVSVSS
VL: B9 VL with D17E, S31R, A34T, Y36F, D53E, I58V
B14: MAB310 (I3) (antibody, V domains shown)
VH: B11 VH with H59Y, F60S, D74N, I93V
VL: B9 VL with M4L, S28T, S31R, P59S
B15: MAB318 (antibody, V domains shown)
VH: B11 VH
VL: B9 VL with I2V, M4L, S28T, S31R, P59S, S76G, N93S
B16: MAB313 (antibody, V domains shown)
VH: B13 VH with V12I, G31A, F32Y, H57F, K65R, T78R, L79F, I83M, D85G
VL: B9 VL with D17E, S31R, A34T, Y36F, D53E, S92A
B17: I1 (antibody, V domains shown)
VH: B9 VH with Q5V, G73D, A119V
VL: B9 VL
notes: also called intermediate 1
B18: I7 (antibody, V domains shown)
VH: B3 VH with S31G, A33N, M34L, Y53I, Y59H
VL: not shown
notes: also called intermediate 7
B19: I5 (antibody, V domains shown)
VH: B12 VH with G24A, T56S, E82Q, S84N, R85S, K87R, V97A, I103V, F110L
VL: B9 VL with M4L, D17E, D53E, F83V
notes: also called intermediate 5
B20: MAB319 (antibody, V domains shown)
VH: QVQLVESGGGVVQPGRSLRLSCSASGFTFSDYNLHWVRQAPGKGLEWVAVISIDGSDKHHADSVKGRFTVSRDNSKNTVSLQMDSLRPEDTAVYYCARDGRSVGGYSGILDPWGQGTLVTVSS
VL: B9 VL with M4L, D17E, D53E, F83V, S92N
B21: TRL345 (antibody, V domains shown)
VH: B9 VH with Q5V, N30S, T31D, N53I, K65A, I70L, G73D, V93I, A119V
VL: B9 VL with I48M, A51S, D53V, S92N
notes: also called MAB345
B22: anti-gB AD-2 mAb 3-25 (antibody, V domains shown)
VH: QVQLVESGGGVVQPGRSLRLSCAASGFTFSNHGLHWVRQPPGKGLEWVAVVSKDGTNEHYADSVRGRFTISRDNSKNTLYLLMKSLRLEDTAVYYCAREGYCGDDRCYSGQPDYWGQGILVTVSS
VL: B9 VL with M4L, S7F, D17E, S31R, A51S, D53N, I58V, T74S, Y87F, N93H
B23: TRL345 UCA (antibody, V domains shown)
VH: B3 VH
VL: not shown
notes: also called unmutated common ancestor
B24: TRL345 I8 (antibody, V domains shown)
VH: B3 VH with A33N, Y53N
VL: not shown

In the first experiment the target is T2, full-length gB (Towne strain) expressed on HEK293T cells (Human cytomegalovirus strain Towne, UniProt P13201).
T2 construct: also called cell-associated gB
Nature of the experiment: flow cytometry on cells. Details: AUC of a 3-point dilution series: unit not given beside the values. Particulars: one partner purified.
Molecule B1 returned an other of 4.4 fold. As for B2, the other turned out to be 1.4 fold. Turning to B3, the “AUC of a 3-point dilution series” value was found to be 97.3 ± 21.2.

In the case of B4, the binding result is given as “binds”. For B5, the “fold increase in binding magnitude against the UCA” value stood at 2.5 fold. The molecule B6 displayed an other of 1.4 fold. As for B7, the binding result was “binds”. On the same count and under the same terms, in the case of B8 it was “binds”.

For another experiment, the target named is T1, gB AD-2S1 peptide. Nature of the experiment: ELISA; 384-well plates coated overnight at 4°C with 45 ng gB AD-2S1 peptide or gB ectodomain per well; mAbs in a 12-point 3-fold dilution from 1 μg/mL; detected with goat anti-human IgG-HRP; EC50. The note with it: both partners purified.
With B5, the “fold increase in binding magnitude against the UCA” value was found to be 269 fold. B6 yielded an other of 395 fold. As to B8, the binding result is on record as “binds”.

Another experiment deals with gB AD-2S1 peptide (human cytomegalovirus). Nature of the experiment: SPR. The note with it: both partners purified.
In the case of B9, the Kd worked out at 1.57 nM and the kon was 1.61e+08 M⁻¹ s⁻¹. The matching figures for B10: 1.85 nM and 1.3e+08 M⁻¹ s⁻¹.

As to B11, the Kd is 3.77 nM and the kon was determined as 1.24e+08 M⁻¹ s⁻¹. The matching figures for B12: 1.99 nM and 1.36e+08 M⁻¹ s⁻¹. For the molecule B13, the Kd was 2.96 nM and the kon worked out at 1.63e+08 M⁻¹ s⁻¹.

B14: the Kd came to 3.11 nM and the kon worked out at 1.87e+08 M⁻¹ s⁻¹. The matching figures for B15: 3.68 nM and 1.33e+08 M⁻¹ s⁻¹. The matching figures for B16: 4.38 nM and 1.54e+08 M⁻¹ s⁻¹.

The molecule B17 returned a Kd of 1.59 nM and a kon of 1.43e+08 M⁻¹ s⁻¹. In turn, B18 gave a Kd of 4.47 nM and a kon of 1.46e+08 M⁻¹ s⁻¹. The matching figures for B19: 5.52 nM and 1.23e+08 M⁻¹ s⁻¹. Turning to B20, the Kd worked out at 0.9 nM and the kon is 1.3e+08 M⁻¹ s⁻¹.

For a further experiment the target is unchanged. Nature of the experiment: SPR. Particulars: both partners purified. The source holds these as a separate data set.
In the case of B21, the Kd came to 0.29 nM and the kon was 1.52e+08 M⁻¹ s⁻¹. The like results for B22 were, in that order, 4.42 nM and 1.49e+08 M⁻¹ s⁻¹. The matching figures for B23: 27.6 nM and 9.73e+07 M⁻¹ s⁻¹.

For B24, binding was characterised by a dissociation constant (Kd) of 23.2 nM and the kon came out at 1.33e+08 M⁻¹ s⁻¹.
